Data reported in US20210130452A1 (Merck KGaA, published 2021).
Several values for one entry are separate records, joined by “and”; a condition that tells them apart may be missing. Equal values may be shown once. Read-outs that look alike come from different tables or passages of the source.

What was measured:
[1] = biological target: T1, human IL-17A/F heterodimer (human, UniProt Q16552 24-155; Q96PD4 31-163, limits assumed); experiment: SPR (Biacore) off-rate
T1 construct: bought, made in E. coli (R&D Systems 5194-IL/CF); also called hIL-17A/F; hIL17A/F
Target sequence in this assay (Q16552 24-155 limits assumed, one chain of several): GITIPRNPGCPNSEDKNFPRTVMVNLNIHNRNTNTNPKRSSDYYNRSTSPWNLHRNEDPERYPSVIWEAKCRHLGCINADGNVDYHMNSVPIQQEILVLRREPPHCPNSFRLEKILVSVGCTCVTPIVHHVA

[2] = biological target: T2, human IL-17F (human, UniProt Q96PD4 31-163); experiment: SPR (Biacore) off-rate
T2 construct: made in Hek293 cells (GenBank AF384857); also called hIL-17F; hIL17F
T2 sequence: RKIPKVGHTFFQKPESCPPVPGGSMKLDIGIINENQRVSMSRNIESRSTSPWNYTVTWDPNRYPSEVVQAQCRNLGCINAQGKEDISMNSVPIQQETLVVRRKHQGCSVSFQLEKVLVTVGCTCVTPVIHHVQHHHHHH

[3] = biological target: T3, Cynomolgus monkey IL-17F (Cynomolgus monkey, UniProt G7P4V0 31-163); experiment: SPR (Biacore) off-rate
T3 construct: also called cyno IL-17F; cIL-17F
T3 sequence: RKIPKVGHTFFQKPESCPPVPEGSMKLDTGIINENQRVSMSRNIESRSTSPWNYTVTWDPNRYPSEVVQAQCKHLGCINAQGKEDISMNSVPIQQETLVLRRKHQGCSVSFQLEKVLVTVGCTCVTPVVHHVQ

[4] = biological target: T2, human IL-17F; experiment: AlphaScreen IL-17F-IL-17RC; reference itself
[5] = biological target: T1, human IL-17A/F heterodimer; experiment: cell-based or functional assay
Target sequence in this assay (Q16552 24-155 limits assumed, one chain of several): as the sequence (Q16552 24-155 limits assumed, one chain of several) above

[6] = biological target: T2, human IL-17F; experiment: cell-based or functional assay
[7] = biological target: T3, Cynomolgus monkey IL-17F; experiment: cell-based or functional assay
[8] = biological target: T2, human IL-17F; experiment: AlphaScreen IL-17F-IL-17RC; reference itself; remark: listed apart in the source
[9] = biological target: T1, human IL-17A/F heterodimer; experiment: SPR (Biacore) off-rate; remark: listed apart in the source
Target sequence in this assay (Q16552 24-155 limits assumed, chain 1 of 2, one chain of several): as the sequence (Q16552 24-155 limits assumed, one chain of several) above

[10] = biological target: T2, human IL-17F; experiment: SPR (Biacore) off-rate; remark: listed apart in the source
[11] = biological target: Cynomolgus monkey IL-17A (Cynomolgus monkey, UniProt A0A2K5TTB0 24-155); experiment: cell-based or functional assay
Target sequence in this assay (A0A2K5TTB0 entry or part of it): as the sequence (Q16552 24-155 limits assumed, one chain of several) above, with T3A, P8S, N34S, I77V, N78K, P104R counted along it

[12] = biological target: T4, human IL-17A (human, UniProt Q16552 24-155); experiment: cell-based or functional assay
T4 sequence (Q16552 other isoform, or with tags, fused parts or gaps): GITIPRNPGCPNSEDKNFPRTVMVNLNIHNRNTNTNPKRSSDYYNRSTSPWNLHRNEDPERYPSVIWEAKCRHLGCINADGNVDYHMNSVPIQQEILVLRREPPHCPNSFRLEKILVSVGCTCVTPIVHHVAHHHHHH

[13] = biological target: T5, human IL-17F (human, UniProt Q96PD4 31-163); experiment: cell-based or functional assay; remark: listed apart in the source
T5 sequence: T2 sequence

[14] = biological target: T5, human IL-17F; experiment: KinExA, 600 pM Nanobody
[15] = biological target: T4, human IL-17A; experiment: cell-based or functional assay; remark: listed apart in the source
[16] = biological target: T5, human IL-17F; experiment: cell-based or functional assay; remark: listed apart in the source
[17] = biological target: T6, human IL-17A (human, UniProt Q16552 24-155); experiment: SPR (Biacore) off-rate
T6 construct: secreted form made in Hek293 cells (GenBank U32659); also called hIL-17A; hIL17A
T6 sequence (Q16552 other isoform, or with tags, fused parts or gaps): as above

[18] = biological target: T1, human IL-17A/F heterodimer; experiment: SPR (Biacore) off-rate; remark: listed apart in the source
Target sequence in this assay (Q16552 24-155 limits assumed, one chain of several): as the sequence (Q16552 24-155 limits assumed, one chain of several) above

[19] = biological target: T2, human IL-17F; experiment: SPR (Biacore) off-rate; remark: listed apart in the source
[20] = biological target: T6, human IL-17A; experiment: AlphaScreen hIL-17A-IL-17RA; reference itself
[21] = biological target: T2, human IL-17F; experiment: AlphaScreen hIL-17F-IL-17RC; reference itself
[22] = biological target: T6, human IL-17A; experiment: AlphaScreen hIL-17A-IL-17RA; reference itself; remark: listed apart in the source
[23] = biological target: T6, human IL-17A; experiment: cell-based or functional assay; remark: listed apart in the source
[24] = biological target: T1, human IL-17A/F heterodimer; experiment: cell-based or functional assay; remark: listed apart in the source
Target sequence in this assay (Q16552 24-155 limits assumed, one chain of several): as above

[25] = biological target: T2, human IL-17F; experiment: cell-based or functional assay; remark: listed apart in the source
[26] = biological target: T3, Cynomolgus monkey IL-17F; experiment: cell-based or functional assay; remark: listed apart in the source
[27] = biological target: T2, human IL-17F; experiment: AlphaScreen hIL-17F-IL-17RC; reference itself; remark: listed apart in the source
[28] = biological target: T7, Cynomolgus monkey IL-17A (Cynomolgus monkey, UniProt A0A2K5TTB0 24-155); experiment: SPR (Biacore) off-rate
T7 construct: also called cyno IL-17A; cIL-17A
T7 sequence (A0A2K5TTB0 entry or part of it): as the sequence (Q16552 24-155 limits assumed, one chain of several) above, with T3A, P8S, N34S, I77V, N78K, P104R counted along it

[29] = biological target: T6, human IL-17A; experiment: SPR (Biacore) off-rate; remark: listed apart in the source
[30] = biological target: T1, human IL-17A/F heterodimer; experiment: SPR (Biacore) off-rate; remark: listed apart in the source
Target sequence in this assay (Q16552 24-155 limits assumed, one chain of several): as the sequence (Q16552 24-155 limits assumed, one chain of several) above

[31] = biological target: T2, human IL-17F; experiment: SPR (Biacore) off-rate; remark: listed apart in the source
[32] = biological target: T3, Cynomolgus monkey IL-17F; experiment: SPR (Biacore) off-rate; remark: listed apart in the source
[33] = biological target: T2, human IL-17F; experiment: AlphaScreen hIL-17F-IL-17RC; reference itself; remark: listed apart in the source
[34] = biological target: T7, Cynomolgus monkey IL-17A; experiment: SPR (Biacore) off-rate; remark: listed apart in the source
[35] = biological target: T6, human IL-17A; experiment: SPR (Biacore) off-rate; remark: listed apart in the source
[36] = biological target: T1, human IL-17A/F heterodimer; experiment: SPR (Biacore) off-rate; remark: listed apart in the source
Target sequence in this assay (Q16552 24-155 limits assumed, one chain of several): as above

[37] = biological target: T2, human IL-17F; experiment: SPR (Biacore) off-rate; remark: listed apart in the source
[38] = biological target: T3, Cynomolgus monkey IL-17F; experiment: SPR (Biacore) off-rate; remark: listed apart in the source
[39] = biological target: T6, human IL-17A; experiment: cell-based or functional assay; remark: listed apart in the source
[40] = biological target: T1, human IL-17A/F heterodimer; experiment: cell-based or functional assay; remark: listed apart in the source
[41] = biological target: T2, human IL-17F; experiment: cell-based or functional assay; remark: listed apart in the source
[42] = biological target: T3, Cynomolgus monkey IL-17F; experiment: cell-based or functional assay; remark: listed apart in the source
[43] = biological target: T6, human IL-17A; experiment: AlphaScreen hIL-17A-IL-17RA; reference itself; remark: listed apart in the source
[44] = biological target: T6, human IL-17A; experiment: SPR (Biacore) off-rate; remark: listed apart in the source
[45] = biological target: T1, human IL-17A/F heterodimer; experiment: SPR (Biacore) off-rate; remark: listed apart in the source
Target sequence in this assay (Q16552 24-155 limits assumed, chain 1 of 2, one chain of several): as the sequence (Q16552 24-155 limits assumed, one chain of several) above

[46] = biological target: T2, human IL-17F; experiment: SPR (Biacore) off-rate; remark: listed apart in the source
[47] = biological target: T2, human IL-17F; experiment: AlphaScreen hIL-17F-IL-17RC; reference itself; remark: listed apart in the source
[48] = biological target: T6, human IL-17A; experiment: AlphaScreen hIL-17A-IL-17RA; reference itself; remark: listed apart in the source
[49] = biological target: T6, human IL-17A; experiment: AlphaScreen hIL-17A-IL-17RA; vs IL17MS13E02
[50] = biological target: T2, human IL-17F; experiment: AlphaScreen hIL-17F-IL-17RC; vs IL17MS13E02

B1: IL17MS16A04 (VHH)
VHH: EVQLVESGGGLVQAGGSLRLSCAASGRTFSSYVVGWFRQAPGKEREFIGAISGSGDSIYYAVSEKDRFTISRDNGKNTLYLQMSSLKAEDTAVYYCTADQEFGYLRFGRSEYWGQGTQVTVSS
notes: Class 3 Nanobody, wild type; also called WT
B1 was tested, and the koff [1] was 0.00239 s⁻¹ and 0.0025 s⁻¹, the koff [2] was 0.000382 s⁻¹ and 0.00041 s⁻¹ and the koff [3] was 0.000636 s⁻¹. The “IC50 fold difference vs WT” value [4] was 1 fold, the “IC50 cell based assay hIL-17A/F” value [5] was 8 nM and the “IC50 cell based assay hIL-17F” value [6] was 28 nM. For the same binder, the “IC50 cell based assay cyno IL-17F” value [7] was 7.3 nM, the “IC50 fold difference vs WT” value [8] was 1 fold and the koff [9] was 0.0024 s⁻¹. The koff [10] was 0.000405 s⁻¹.

B2: 13E02-LH-Fc (Fc fusion, not shown: a dimerising Fc or GST)
chain: EVQLVESGGGLVQAGGSLRLSCAASGRTYDAMGWLRQAPGKEREFVAAISGSGDDTYYADSVKGRFTISKDNAGITMYLQMNSLKPEDTAVYYCATRRGLYYVWDSNDYENWGQGTQVTVSSEPKTPKPQPQPQPQPNPTTESKCPKCP
notes: bivalent Fc fusion from Hek-293-6E cells; also called MSB0010606
In the case of B2, the “IC50, Cyno IL17A, HT-1080 bioassay” value [11] is reported as 0.19 nM, the “IC50, hIL-17A induced IL-6, HT-1080, without HSA” value [12] is reported as 0.19 nM and the “IC50, hIL-17F induced IL-6, HT-1080, without HSA” value [13] is reported as 2.7 nM. For the same binder, the Kd [14] was 2.04 nM, the “Emax, hIL-17A induced IL-6, HT-1080, 100 µM HSA” value [15] was 98.5% and the “IC50, hIL-17A induced IL-6, HT-1080, 100 µM HSA” value [15] was 0.85 nM. The “IC50, hIL-17F induced IL-6, HT-1080, 100 µM HSA” value [16] was 15.3 nM.

B3: IL17MS13B03 (VHH)
VHH: EVQLVESGGGSVQAGDSLRLSCAASGRANSINWFGWFRQTPGKEREFVAGIRWSDAYTEYANSVKGRFTISRDNAKNTVDLQMDSLKPEDTAVYYCVLDLSTVRYWGQGTQVTVSS
notes: Class 4 Nanobody, wild type; also called WT
With B3 the koff [17] was 0.000131 s⁻¹ and 0.000208 s⁻¹, the koff [18] was 6.21e-05 to 0.000125 s⁻¹ and the koff [19] was 0.00792 s⁻¹. The “IC50 fold difference compared to WT” value [20] was 1 fold, the “IC50 fold difference compared to WT” value [21] was 1 fold and the “IC50 fold difference compared to WT” value [22] was 1 fold. For the same binder, the “IC50 cell based assay hIL17A” value [23] was 1.34 nM, the “IC50 cell based assay hIL17A/F” value [24] was 4.32 nM and the “IC50 cell based assay hIL17F” value [25] was 35 nM. The “IC50 cell based assay cyno IL17F” value [26] was 29 nM, the “IC50 fold difference compared to WT” value [27] was 1 fold and the koff [28] was 0.000114 s⁻¹. The koff [29] was 0.000131 s⁻¹ and 0.000208 s⁻¹, the koff [30] was 6.21e-05 to 0.000125 s⁻¹ and the koff [31] was 0.00792 s⁻¹. For the same binder, the koff [32] was 0.00469 s⁻¹.

B4: IL17MS13E02 (VHH)
VHH: EVQLVESGGGLVQAGGSLRLSCAASGRTYDAMGWLRQAPGKEREFVAAISGSGDDTYYADSVKGRFTISKDNAGITMYLQMNSLKPEDTAVYYCATRRGLYYVWDSNDYENWGQGTQVTVSS
notes: as for B3
B4 was tested, and the “IC50 fold difference vs WT” value [33] was 1 fold, the koff [34] was 0.000103 s⁻¹ and the koff [35] was 0.000114 s⁻¹. The koff [36] was 3.97e-05 s⁻¹, the koff [37] was 0.00223 s⁻¹ and the koff [38] was 0.046 s⁻¹. For the same binder, the “IC50 cell based assay hIL-17A” value [39] was 1.73 nM, the “IC50 cell based assay hIL-17A/F” value [40] was 1.99 nM and the “IC50 cell based assay hIL-17F” value [41] was 44 nM. The “IC50 cell based assay cyno IL-17F” value [42] was 35 nM, the “IC50 fold difference vs WT” value [43] was 1 fold and the koff [44] was 0.000114 s⁻¹. For the same binder, the koff [45] was 3.97e-05 s⁻¹, the koff [46] was 0.00223 s⁻¹ and the “IC50 fold difference vs WT” value [47] was 1 fold. The “IC50 fold difference vs WT” value [48] was 1 fold.

B5: IL17MS3072 (VHH)
VHH: DVQLVESGGGLVQPGGSLRLSCAASGRTYDALGWLRQAPGKEREFVAAISGSGDDTYYADSVKGRFTISRDNSKNTLYLQMNSLRPEDTAVYYCATRRGLYYVWDANDYENWGQGTLVTVSS
notes: variant of IL17MS13E02; Kabat numbering
B5 was tested, and the “IC50 fold difference vs WT” value [49] was 0.59 fold, the “IC50 fold difference vs WT” value [50] was 0.3 fold and the “IC50 cell based assay hIL-17A” value [39] was 0.77 nM. For the same binder, the “IC50 cell based assay hIL-17A/F” value [40] was 3.5 nM, the “IC50 cell based assay hIL-17F” value [41] was 27 nM and the “IC50 cell based assay cyno IL-17F” value [42] was 25.2 nM.
